Assay results reported in article PMC4169312 (The FEBS journal, 2014).

B1: sMAT (methionine adenosyltransferase from Sulfolobus solfataricus) (Saccharolobus solfataricus P2) (protein)
chain: MRNINVQLNPLSDIEKLQVELVERKGLGHPDYIADAVAEEASRKLSLYYLKKYGVILHHNLDKTLVVGGQATPRFKGGDIIQPIYIIVAGRATTEVKTESGIDQIPVGTIIIESVKEWIRNNFRYLDAERHVIVDYKIGKGSSDLVGIFEASKRVPLSNDTSFGVGFAPLTKLEKLVYETERHLNSKQFKAKLPEVGEDIKVMGLRRGNEVDLTIAMATISELIEDVNHYINVKEQVRNQILDLASKIAPGYNVRVYVNTGDKIDKNILYLTVTGTSAEHGDDGMTGRGNRGVGLITPMRPMSLEATAGKNPVNHVGKLYNVLANLIANKIAQEVKDVKFSQVQVLGQIGRPIDDPLIANVDVITYDGKLTDETKNEISGIVDEMLSSFNKLTELILEGKATLF

Columns and labels:
Experiment in all cases: RP-HPLC product quantification, Michaelis-Menten fit
[1] = target: sMAT (methionine adenosyltransferase from Sulfolobus solfataricus) (Saccharolobus solfataricus, UniProt Q980S9); assay type: biochemical; settings: 65 °C, pH 8.0, 2.5 mM ATP, 5 mM MgCl2, 40 mM KCl
[2] = substrate: Nc1ncnc2c1ncn2[C@@H]1O[C@H](COP(=O)(O)OP(=O)(O)OP(=O)(O)O)[C@@H](O)[C@H]1O; assay type: biochemical, Saccharolobus solfataricus; settings: 65 °C, pH 8.0, 2.5 mM L-methionine, 5 mM MgCl2, 40 mM KCl
[3] = substrate: CSCC[C@H](N)C(=O)O; assay type: biochemical, Saccharolobus solfataricus; settings: 65 °C, pH 8.0, 2.5 mM ATP, 5 mM MgCl2, 40 mM KCl

Molecule | Km [1] | Km [2] | kcat [2] | kcat/Km [2] | Km [3] | kcat [3] | kcat/Km [3]
CCSCC[C@H](N)C(=O)O [L-ethionine, (2S)-2-amino-4-(ethylsulfanyl)butanoic acid] | 7 ± 1.6 µM |  |  |  |  |  | 
B1 |  | 14.5 ± 2.5 µM | 0.0468 ± 0.00133 s⁻¹ | 3230 ± 533 M⁻¹ s⁻¹ | 2.8 ± 0.7 µM | 0.0487 ± 0.00117 s⁻¹ | 17400 ± 1670 M⁻¹ s⁻¹
